Test results taken from publication PMC10662374, “Structures of the interleukin 11 signalling complex reveal gp130 dynamics and the inhibitory mechanism of a cytokine variant” (Nature Communications, 2023).
Where “and” joins values, the source holds several entries; their conditions need not be identical. Equal values may be shown once.

How the values were obtained:
IL-11Rα_(D1-D3) [1] = biological target: T1, IL-11Rα_(D1-D3) (human, UniProt Q14626 23-319, N-linked glycans (N105, N172 seen in the structures)); experiment: SPR; Biacore T200, 25 °C, TBS pH 8.5 + 0.05% Tween, 30 μL/min; biotinylated IL-11-avi on a streptavidin chip, IL-11Rα_(D1-D3) flowed over (two-fold dilutions from 500 nM), 1:1 kinetic model, n = 2; details: both partners purified
T1 construct: Secreted with a honeybee-melittin signal peptide; also called C-terminally truncated form of IL-11Rα; not shown: His8, N-terminal, cleaved
T1 sequence: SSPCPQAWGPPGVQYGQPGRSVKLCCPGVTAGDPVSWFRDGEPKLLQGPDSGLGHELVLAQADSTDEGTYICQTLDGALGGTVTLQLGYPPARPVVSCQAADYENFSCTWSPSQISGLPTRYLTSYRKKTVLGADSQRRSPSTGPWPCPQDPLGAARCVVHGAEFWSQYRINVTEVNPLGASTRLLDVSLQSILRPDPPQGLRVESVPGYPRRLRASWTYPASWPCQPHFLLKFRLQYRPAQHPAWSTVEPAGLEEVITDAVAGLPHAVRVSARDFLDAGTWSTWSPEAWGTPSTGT

[2] = biological target: T2, IL-11RαD1-D3 (C-terminally truncated form of human IL-11Rα, structured extracellular domains D1-D3) (human, UniProt Q14626 23-319); experiment: SPR; Biacore T200; biotinylated IL-11-avi constructs immobilised on a streptavidin chip; IL-11RαD1-D3 injected, two-fold dilutions from 500 nM; 25 °C (298 K); TBS pH 8.5 + 0.05% Tween; 30 μL/min; 1:1 kinetic model; n = 2; details: both partners purified
T2 construct: interleukin 11 receptor subunit alpha, human, domains D1-D3 (C-terminally truncated extracellular region); Expressed with a honeybee-melittin signal peptide; not shown: His8, N-terminal, cleaved
T2 sequence: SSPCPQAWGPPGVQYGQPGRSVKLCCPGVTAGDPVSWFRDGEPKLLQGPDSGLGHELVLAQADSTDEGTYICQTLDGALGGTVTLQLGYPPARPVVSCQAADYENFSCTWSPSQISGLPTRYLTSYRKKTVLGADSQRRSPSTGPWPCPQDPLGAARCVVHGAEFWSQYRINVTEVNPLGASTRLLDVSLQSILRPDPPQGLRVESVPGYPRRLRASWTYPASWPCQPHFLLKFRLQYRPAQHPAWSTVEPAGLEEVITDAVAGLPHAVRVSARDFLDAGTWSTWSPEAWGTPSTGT

IL-11Rα D1-D3 = biological target: T3, IL-11Rα D1-D3 (human, UniProt Q14626 23-319); experiment: SPR; biotinylated IL-11Δ10-avi or IL-11Δ10/Mutein-avi immobilised on a streptavidin chip (SAHC 1500M); IL-11Rα D1-D3 flowed over, nine-point two-fold dilution series from 500 nM; Biacore T200, 25 °C, TBS pH 8.5 + 0.05% Tween, 30 uL/min; 1:1 kinetic model; two replicate dilution series (run 1, run 2); details: both partners purified
T3 construct: interleukin 11 receptor subunit alpha, human, C-terminally truncated form with the structured extracellular domains D1-D3; Secreted with a honeybee-melittin signal peptide; tag removed with TEV protease; N-glycosylated; also called IL11RA; RA; not shown: His8, N-terminal, cleaved
T3 sequence: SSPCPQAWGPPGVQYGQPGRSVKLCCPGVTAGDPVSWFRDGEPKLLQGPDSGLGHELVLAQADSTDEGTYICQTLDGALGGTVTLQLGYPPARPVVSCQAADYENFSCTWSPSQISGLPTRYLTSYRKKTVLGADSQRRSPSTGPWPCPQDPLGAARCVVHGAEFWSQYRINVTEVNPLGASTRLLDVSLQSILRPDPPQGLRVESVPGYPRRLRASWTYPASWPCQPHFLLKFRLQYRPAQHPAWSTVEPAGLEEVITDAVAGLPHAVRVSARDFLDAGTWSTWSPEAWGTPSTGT

IL-11Rα_(D1-D3) [3] = biological target: T1, IL-11Rα_(D1-D3); experiment: cell-based or functional assay
IL-11Rα_(D1-D3) [4] = biological target: T1, IL-11Rα_(D1-D3); experiment: ITC; cytokine in the syringe (10-fold above IL-11Rα), IL-11Rα_(D1-D3) in the cell at 10 μM, TBS pH 8.5, 1:1 interaction model, n = 3; details: both partners purified

Row | Binder | koff (IL-11Rα_(D1-D3) [1]) | Kd (IL-11Rα D1-D3) | koff (IL-11Rα D1-D3) | kon (IL-11Rα D1-D3) | further results
1 | biotinylated IL-11_(Δ10/Mutein)-avi (ligand, human, biotin on the C-terminal avitag, interleukin 11 (IL-11), human, IL-11Δ10 with W147A and 58-62 AMSAG changed to PAIDY; numbers count on: the mature protein; source: E. coli BL21(DE3), biotinylated, purified as IL-11Δ10; not shown: His6, N-terminal, cleaved; avitag, C-terminal, kept) SPDPRAELDSTVLLTRSLLADTRQLAAQLRDKFPADGDHNLDSLPTLPAIDYALGALQLPGVLTRLRADLLSYLRHVQWLRRAGGSSLKTLEPELGTLQARLDRLLRRLQLLMSRLALPQPPPDPPAPPLAPPSSAAGGIRAAHAILGGLHLTLDWAVRGLLLLKTRL | 0.034 s⁻¹ | – | – | – | –
2 | biotinylated IL-11Δ10-avi (ligand, human, biotin on the C-terminal avitag, interleukin 11 (IL-11), human, N-terminally truncated form IL-11Δ10; numbers count on: the mature protein; source: E. coli BL21(DE3), biotinylated, purified as IL-11Δ10; not shown: His6, N-terminal, cleaved; avitag, C-terminal, kept) SPDPRAELDSTVLLTRSLLADTRQLAAQLRDKFPADGDHNLDSLPTLAMSAGALGALQLPGVLTRLRADLLSYLRHVQWLRRAGGSSLKTLEPELGTLQARLDRLLRRLQLLMSRLALPQPPPDPPAPPLAPPSSAWGGIRAAHAILGGLHLTLDWAVRGLLLLKTRL | 0.11 s⁻¹ | – | – | – | –
3 | biotinylated IL-11Δ10/Mutein-avi (ligand, human, biotin on the C-terminal avitag, interleukin 11, human, Δ10 with W147A and 58PAIDY62, as Dm7; numbers count on: the mature protein; also called IL11Δ10/Mutein - Avitag; source: E. coli BL21(DE3), biotinylated in the cells, purified as IL-11Δ10; not shown: avitag, C-terminal, kept; His6, N-terminal, cleaved) SPDPRAELDSTVLLTRSLLADTRQLAAQLRDKFPADGDHNLDSLPTLPAIDYALGALQLPGVLTRLRADLLSYLRHVQWLRRAGGSSLKTLEPELGTLQARLDRLLRRLQLLMSRLALPQPPPDPPAPPLAPPSSAAGGIRAAHAILGGLHLTLDWAVRGLLLLKTRL | – | – | – | – | Kd [2]: 33 nM; kon [2]: 1e+06 M⁻¹ s⁻¹
4 | biotinylated IL-11Δ10-avi (ligand, human, biotin on the C-terminal avitag, interleukin 11, human, N-terminally truncated form IL-11Δ10; numbers count on: the mature protein; also called IL11d10; not shown: His6, N-terminal, cleaved; avitag, C-terminal, kept) SPDPRAELDSTVLLTRSLLADTRQLAAQLRDKFPADGDHNLDSLPTLAMSAGALGALQLPGVLTRLRADLLSYLRHVQWLRRAGGSSLKTLEPELGTLQARLDRLLRRLQLLMSRLALPQPPPDPPAPPLAPPSSAWGGIRAAHAILGGLHLTLDWAVRGLLLLKTRL | – | 78.5 nM and 77.1 nM and 77.8 nM | 0.0943 s⁻¹ and 0.125 s⁻¹ | 1.2e+06 M⁻¹ s⁻¹ and 1.61e+06 M⁻¹ s⁻¹ and 1.41e+06 M⁻¹ s⁻¹ | –
5 | biotinylated IL-11Δ10/Mutein-avi (ligand, human, biotin on the C-terminal avitag, interleukin 11, human, N-terminally truncated form IL-11Δ10 with the Mutein changes; numbers count on: the mature protein; not shown: His6, N-terminal, cleaved; avitag, C-terminal, kept) SPDPRAELDSTVLLTRSLLADTRQLAAQLRDKFPADGDHNLDSLPTLPAIDYALGALQLPGVLTRLRADLLSYLRHVQWLRRAGGSSLKTLEPELGTLQARLDRLLRRLQLLMSRLALPQPPPDPPAPPLAPPSSAAGGIRAAHAILGGLHLTLDWAVRGLLLLKTRL | – | 35.8 nM and 30.8 nM and 33.3 nM | 0.035 s⁻¹ and 0.0335 s⁻¹ | 937000 M⁻¹ s⁻¹ and 1.14e+06 M⁻¹ s⁻¹ and 1.04e+06 M⁻¹ s⁻¹ | –
6 | IL-11_(Δ10/Mutein) (ligand, human, interleukin 11 (IL-11), human, IL-11Δ10 with W147A and AB loop residues 58-62 AMSAG changed to PAIDY; numbers count on: the mature protein; Parent construct IL-11Δ10; also called IL-11 Mutein; not shown: His6, N-terminal, cleaved) SPDPRAELDSTVLLTRSLLADTRQLAAQLRDKFPADGDHNLDSLPTLPAIDYALGALQLPGVLTRLRADLLSYLRHVQWLRRAGGSSLKTLEPELGTLQARLDRLLRRLQLLMSRLALPQPPPDPPAPPLAPPSSAAGGIRAAHAILGGLHLTLDWAVRGLLLLKTRL | – | – | – | – | IC50 of inhibition of IL-11Δ10 (20 ng/mL) mediated STAT3 activation (pSTAT3, flow cytometry) in Ba/F3 cells stably expressing human gp130 and IL-11Rα; competes with IL-11 for IL-11Rα and gp130 (IL-11Rα_(D1-D3) [3]): 850 nM; Kd (IL-11Rα_(D1-D3) [4]): 38 nM
